One data set concerns soybean shoots. Briefly: Soybean transformation, selection of shoots with tembotrione. The note with it: wild-type soybean shoots treated with selection marker. The class given is in vivo. The text has this: Soybean transformation was achieved by using methods well known in the art, such as the one described using the Agrobacterium tumefaciens mediated transformation soybean half-seed explants using essentially the method described by Paz et al. (2006), Plant cell Rep. 25:206. Transformants were identified by using the HPPD inhibitor herbicide “tembotrione” as selection marker. The appearance of green shoots was observed, and documented as an indicator of tolerance to the HPPD inhibitor herbicide tembotrione.

For data set [1], the target named is HPPD polypeptides (wild-type SEQ ID NO:1 and mutants) (Pseudomonas sp., UniProt P80064, A172V/A339V/A53E/D148E/D329H/D45N/E105D/E287Q/E300V/E334P/F143Y/G286D/G335D/H150N/H254A/H63N/I158V/I187A/I249V/K92N/L18F/M263R/N24G/N280D/N336S/S245T/S257K/S301E/T205S/V65I). Particulars: compared with SEQ ID NO:12; Tables 3a, 3b.
Data set [2] relates to transgenic T1 soybean events. The experiment in a line: Field trials of T1 soybean events, leaf damage eight days after application. The class given is in vivo. An outline of the steps: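 T1 soybean events carrying the HPPD inhibitor tolerant polypeptide, field-grown and sprayed with isoxaflutole 210 g/ha or Cmpd 150 g/ha. Leaf damage scored eight days after application; good tolerance defined as ≤15% damaged leaf area, reported as event frequency.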

Data set [3] has as its system HPPD polypeptides (wild-type SEQ ID NO:1 and mutants). Particulars: 50 μM Cmpd. 1, low substrate concentration (Table 5).
Data set [4] deals with HPPD polypeptides (wild-type SEQ ID NO:1 and mutants) (Pseudomonas sp., UniProt P80064, A172V/A339V/A53E/D148E/D45N/E105D/E287Q/E300V/E334P/F143Y/G286D/G335D/H150N/H254A/H63N/I158V/I187A/I249V/I344V/K92N/L18F/N24G/N280D/N336S/P267G/S245T/S257K/S301E/T205S/T269E/V65I). Particulars: 50 μM Cmpd. 1, low substrate concentration.
Data set [5] relates to HPPD polypeptides (purified, wild-type SEQ ID NO:1 and mutants). The experiment in a line: Coupled HPPD activity assay: ki determination, competitive inhibition fit. Particulars: inhibitor Cmpd. 1. Type of data set: biochemical, Pseudomonas fluorescens. The protocol:
For the generation of purified HPPD polypeptide samples, cells were grown for 3 h at 37° C. in 5 ml LB medium containing 100 μg/ml ampicillin in a 50 ml shaker flask at 140 rpm. One ml of this starter culture was used as inoculum for the expression culture. […] At an OD600 of about 0.6, IPTG (Roth, Karlsruhe, Germany) was added to a concentration of 0.4 mM. After further growth for 60 min at 37° C., the temperature was reduced to 28° C. and growth continued for another 18 h at 140 rpm. Cells were harvested by centrifugation at 4° C., 3200 g for 30 min in 50 ml Falcon tubes and cell pellets were stored at −80° C. […]
The resulting protein samples were re-buffered into 20 mM Tris, 20% Glycerol (pH 7.8) (Sigma-Aldrich, St. Louis, USA) by use of Zeba™ Spin Desalting Columns, 7K MWCO, 10 mL (Thermo Fisher Scientific, Waltham, USA) and analysed for protein concentration and purity by Abs280 (NANODROP 8000, Thermo Fisher Scientific, Waltham, USA) and SDS-PAGE. […]
The mutant HPPD polypeptides represented here are examples by a way of illustration, not by a way of limitation. […] The inhibitor concentrations were adopted for the respective HPPD polypeptide/inhibitor pairs to generate dynamic data, i.e. variants with lower tolerance were analyzed in a range of lower inhibitor concentrations, and concentrations of up to 1200 μM were used for variants with maximized tolerance. […]

Where [6] appears, read: 150 g/ha Cmpd. 1, stage V2-V4, eight days after application.
Setting [7] is: 210 g/ha isoxaflutole, stage V2-V4, eight days after application.

For the molecule `CS(=O)(=O)c1ccc(C(=O)C2C(=O)CCCC2=O)c(Cl)c1COCC(F)(F)F` [tembotrione, 2-[2-chloro-4-(methylsulfonyl)-3-[(2,2,2,-trifluoroethoxy)methyl]benzoyl]-1,3-cyclohexanedione], the appearance of shoots result with soybean shoots is “entirely bleached”.

B1: SEQ ID NO: 18: mutant HPPD polypeptide: M264R D330H E335P G336D N337S A340V (protein)
chain: MADLYENPMGLMGFEFIEFASPTPGTLEPIFEIMGFTKVATHRSKNVHLYRQGEINLILNNEPNSIASYFAAEHGPSVCGMAFRVKDSQKAYNRALELGAQPIHIDTGPMELNLPAIKGIGGAPLYLIDRFGEGSSIYDIDFVYLEGVERNPVGAGLKVIDHLTHNVYRGRMVYWANFYEKLFNFREARYFDIKGEYTGLTSKAMSAPDGMIRIPLNEESSKGAGQIEEFLMQFNGEGIQHVAFLTDDLVKTWDALKKIGMRFRTAPPDTYYEMLEGRLPDHGEPVDQLQARGILLDGSSVEGDKRLLLQIFSETLMGPVFFEFIQRKGHDGFGPDSFKVLFESIERDQVRRGVLTAD
modifications: mutant HPPD polypeptide
notes: mutant HPPD polypeptide: M264R D330H E335P G336D N337S A340V
For B1, in data set [1], the “HPPD inhibitor tolerance towards Cmpd. 1 and Cmpd. 2, in words” value is listed as “further significant improved”. Besides, in data set [2] (setting [6]), the “Frequency in the population (events with ≤15% leaf damage)” value is 60% and the “Independent events with ≤15% leaf damage after spray” value worked out at 12. Besides, in data set [2] (setting [7]), the “Frequency in the population (events with ≤15% leaf damage)” value came to 60% and the “Independent events with ≤15% leaf damage after spray” value was determined as 12.

B2: SEQ ID NO:17 (protein)
chain: MADLYENPMGLMGFEFIEFASPTPGTLEPIFEIMGFTKVATHRSKNVHLYRQGEINLILNNEPNSIASYFAAEHGPSVCGMAFRVKDSQKAYNRALELGAQPIHIDTGPMELNLPAIKGIGGAPLYLIDRFGEGSSIYDIDFVYLEGVERNPVGAGLKVIDHLTHNVYRGRMVYWANFYEKLFNFREARYFDIKGEYTGLTSKAMSAPDGMIRIPLNEESSKGAGQIEEFLMQFNGEGIQHVAFLTDDLVKTWDALKKIGMRFMTAPGDEYYEMLEGRLPDHGEPVDQLQARGILLDGSSVEGDKRLLLQIFSETLMGPVFFEFIQRKGDDGFGPDSFKVLFESVERDQVRRGVLTAD
modifications: mutant HPPD polypeptide
Regarding B2, in data set [3], the Residual activity was found to be 29%. Further, the “reduction of substrate turnover” value in data set [4] worked out at 46%. The “increase of ki towards Cmpd. 1 compared to SEQ ID NO:2” value in data set [5] is approximately 20 fold.

The record behind these values is patent publication US10597674B2, “HPPD variants and methods of use” (BASF Agricultural Solutions Seed, US LLC, priority 2015, dated 2020).
